Laboratory results published in KR20180136327A (dated 2018).

Target: T1, Endothelin receptor type A (ET A) on cells (human, UniProt P25101 21-427)
T1 chain: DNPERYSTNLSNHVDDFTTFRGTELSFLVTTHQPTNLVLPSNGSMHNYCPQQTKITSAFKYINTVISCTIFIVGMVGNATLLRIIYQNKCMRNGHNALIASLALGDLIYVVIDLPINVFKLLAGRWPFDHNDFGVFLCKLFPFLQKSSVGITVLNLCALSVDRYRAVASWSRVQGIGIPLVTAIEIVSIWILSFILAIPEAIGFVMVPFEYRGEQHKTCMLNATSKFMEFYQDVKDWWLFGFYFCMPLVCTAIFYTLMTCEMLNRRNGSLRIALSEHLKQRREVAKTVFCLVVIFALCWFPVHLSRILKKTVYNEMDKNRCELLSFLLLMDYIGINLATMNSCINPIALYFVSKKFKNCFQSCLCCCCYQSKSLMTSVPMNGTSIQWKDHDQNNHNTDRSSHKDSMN
Assay: cell-based or functional assay

B1: 발굴항체 (anti-ET A human antibody, VH SEQ ID NO 12 / VL SEQ ID NO 13) fused to Cκ, scAb format (scFv, V domains shown)
VH: EVQLVESGAEVRKPGASVKVSCKASGYTFTSSDINWIRQATGQGLEWMGYMNPKNGNTDYAQKFQGRISMTRDSSISTAYMELSSLRSEDTAVYYCAKDRYGSGTYGFGMDVWGPGTLVTVS
VL: DIVMTQSPSAMSASVGDRVSITCRASQGINNYLAWFQQKPGKVPKRLMDVGSILQSGIPSRFRGRGSGTQFTLTISSLQAEDSGTYFCLQHNTYPLTFGPGTKVEIKR
K i; inhibition of signalling induced by 10 nM ET-1 (cytosolic Ca2+, Fura-2-AM 340/380 nm ratio) in ET A expressed CHO-K1 stable cell line: 56 nM | K i; inhibition of signalling induced by 10 nM ET-1 (cytosolic Ca2+, Fura-2-AM 340/380 nm ratio) in HT-29 colon cancer cells: 51 nM
